From paper PMC11579514, “Validation of NBD-coupled taurocholic acid for intravital analysis of bile acid transport in liver and kidney of mice” (EXCLI Journal, 2024)

B1: mNtcp (mouse Na+/taurocholate co-transporting polypeptide) (Mus musculus) (protein)
chain: MEAHNVSAPFNFSLPPGFGHRATDTALSVILVVMLLLIMLSLGCTMEFSKIKAHFWKPKGVIIAIVAQYGIMPLSAFLLGKVFHLTSIEALAILICGCSPGGNLSNLFTLAMKGDMNLSIVMTTCSSFTALGMMPLLLYIYSKGIYDGDLKDKVPYKGIMLSLVMVLIPCAIGIFLKSKRPHYVPYVLKAGMIITFSLSVAVTVLSVINVGNSIMFVMTPHLLATSSLMPFTGFLMGYILSALFRLNPSCRRTISMETGFQNVQLCSTILNVTFPPEVIGPLFFFPLLYMIFQLAEGLLFIIIFRCYLKIKPQKDQTKITYKAAATEDATPAALEKGTHNGNNPPTQPGLSPNGLNSGQMAN
notes: full open reading frame with C-terminal FLAG, stably expressed in HEK293
B2: mAsbt (mouse apical sodium-dependent bile acid transporter) (Mus musculus) (protein)
chain: MDNSSVCPPNATVCEGDSCVVPESNFNAILNTVMSTVLTILLAMVMFSMGCNVEVHKFLGHIKRPWGIFVGFLCQFGIMPLTGFILSVASGILPVQAVVVLIMGCCPGGTGSNILAYWIDGDMDLSVSMTTCSTLLALGMMPLCLFVYTKMWVDSGTIVIPYDSIGISLVALVIPVSFGMFVNHKWPQKAKIILKIGSITGVILIVLIAVIGGILYQSAWIIEPKLWIIGTIFPIAGYSLGFFLARLAGQPWYRCRTVALETGMQNTQLCSTIVQLSFSPEDLNLVFTFPLIYTVFQLVFAAVILGIYVTYRKCYGKNDAEFLEKTDNEMDSRPSFDETNKGFQPDEK
notes: as for B1

Columns and labels:
[1] = substrate: C[C@H](CCC(=O)NCCS(=O)(=O)O)[C@H]1CC[C@H]2[C@@H]3[C@H](O)C[C@@H]4C[C@@H](Nc5ccc([N+](=O)[O-])c6nonc56)CC[C@]4(C)[C@H]3C[C@H](O)[C@]12C; assay: sodium-dependent fluorescent uptake kinetics (Km) in mNtcp-HEK cells; assay type: cell-based, Mus musculus; details: Na+
[2] = substrate: C[C@H](CCC(=O)NCCS(=O)(=O)O)[C@H]1CC[C@H]2[C@@H]3[C@H](O)C[C@@H]4C[C@@H](Nc5ccc([N+](=O)[O-])c6nonc56)CC[C@]4(C)[C@H]3C[C@H](O)[C@]12C; assay: sodium-dependent fluorescent uptake kinetics (Km) in mAsbt-HEK cells; assay type: cell-based, Mus musculus; details: Na+

| Protein | Km [1] | Km [2] |
| --- | --- | --- |
| B1 | 23.3 µM |  |
| B2 |  | 19.1 µM |
